B1: APBB1IP (parent)
chain: FNYSVGFKDLNESLNALEDQDLDA

Variants of: B1
Test: protein stability index of a GFP-peptide fusion (GPS, HEK-293T) (PSI 1-6); higher = more stable
Conditions: c terminus: a fixed tail appended
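Further: lentivirally expressed fusions sorted by FACS into six bins by GFP to DsRed ratio, PSI derived from sequencing read proportions per bin multiplied by bin number.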

Protein stability index of substitutions, site by site:
L14: P 4.76, I 4.71, M 4.61, C 3.86, S 4.47, H 5.1, R 4.57, T 4.98, W 4.05, F 4, N 5.06, Y 4.49, E 4.51, A 4.71, G 4.9, Q 4.88, K 4.48, D 4.89, V 4.5
A16: M 4.1, R 4.14, Q 4.52, F 3.92, C 4.47, T 4.57, S 4.19, E 5.02, I 4, W 3.41, N 4.51, Y 3.93, H 4.37, V 3.47, L 4.04, K 4.36, P 4.33, D 4.6, G 3.94
E12: W 2.8, K 4.29, L 3.23, Y 3.12, M 3.87, Q 4.28, C 2.82, S 4.17, F 3.63, N 4.37, R 3.92, P 4.53, V 3.96, T 4.24, I 3.69, H 3.69, D 4.32, G 4.2
S13: E 3.95, G 4.58, T 3.72, V 3.67, F 3.34, D 4.31, Q 4.51, H 4.51, I 2.88, R 4.15, L 2.83, N 4.17, C 4.25, W 2.85, P 4.41, M 3.88, K 3.8, A 4.56, Y 3.54
E18: I 2.67, P 4.51, L 3.24, T 3.44, F 2.79, K 3.82, C 3.56, Q 3.98, G 3.96, D 4.34, A 3.66, R 2.87, W 2.52, M 3.59, S 3.71, Y 2.95, N 4.06, H 3.92, V 3.35
N15: W 2.92, T 4.78, Q 4.28, F 3.72, Y 3.62, P 5, C 4.32, D 4.77, I 4.01, S 4.15, V 4.7, E 4.14, A 4.44, M 4.39, K 4.77, H 4.08, R 3.64, G 4.78, L 4.04
L17: K 4.48, T 5.18, A 4.63, V 4.68, R 5.01, N 5.02, Q 4.88, C 4.48, E 5.04, I 4.68, M 4.17, G 4.51, W 3.85, S 4.78, F 4.43, D 5.25, H 4.18, P 4.65, Y 3.96
D19: S 3.73, E 4.53, Q 3.83, P 3.65, G 4.36, H 3.7, F 3, N 4.04, V 3.56, C 4.06, R 3.67, W 3.42, K 4.5, Y 3.93, A 3.97, T 3.86, L 3.53, I 3.86, M 3.05
Q20: P 3.97, F 3.57, H 4.42, T 4.84, D 4.4, S 3.97, E 4.69, K 4.2, R 3.21, G 4.57, N 4.53, L 3.88, I 3.97, M 3.7, C 4.02, A 4.42
